Reference: article PMC9969416 (Endocrinology, 2023)

Biological target: the molecule itself
Test: crystal structure

B1: ligand-binding domain (LBD) of human RXRα (residues 223-462) (domain or fragment)
chain: TSSANEDMPVERILEAELAVEPKTETYVEANMGLNPSSPNDPVTNICQAADKQLFTLVEWAKRIPHFSELPLDDQVILLRAGWNELLIASFSHRSIAVKDGILLATGLHVHRNSAHSAGVGAIFDRVLTELVSKMRDMQMDKTELGCLRAIVLFNPDSKGLSNPAEVEALREKVYASLEAYCKHKYPEQPGRFAKLLLRLPALRSIGLKCLEHLFFFKLIGDTPIDTFLMEMLEAPHQMT
binding result: binds
